Experimental data taken from paper PMC5137110, “Relocation of active site carboxylates in major facilitator superfamily multidrug transporter LmrP reveals plasticity in proton interactions” (Scientific Reports, 2016).

Tests used:
LmrP = biological target: T1, LmrP (Lactococcus lactis, UniProt Q48658); test: fluorescence anisotropy, purified protein titrated into propidium; type: binding; conditions: 50 mM KPi pH 7.0, 100 mM NaCl, 0.05% DDM; 0.2 or 1 μM propidium
T1 construct: full length, 408 residues; His6-tagged (His10-tagged for T331E); plasmid pNZ8084; expressed in L. lactis NZ9000 delta-lmrA delta-lmrCD

[1] = tested on: CC[N+](C)(CC)CCC[n+]1c(-c2ccccc2)c2cc(N)ccc2c2ccc(N)cc21; test: cells, lysate or membranes; type: cell-based, Lactococcus lactis; conditions: 50 mM KPi pH 7.0, 5 mM MgSO4, corrected for influx in cells without LmrP
[2] = tested on: CC[n+]1c(-c2ccccc2)c2cc(N)ccc2c2ccc(N)cc21; test: cells, lysate or membranes; type: cell-based, Lactococcus lactis; conditions: 50 mM KPi pH 7.0, 5 mM MgSO4, corrected for influx in cells without LmrP

| Compound | fluorescence anisotropy, purified protein titrated into propidium (LmrP) | Km [1] [µM] | Km [2] [µM] |
| --- | --- | --- | --- |
| CC[N+](C)(CC)CCC[n+]1c(-c2ccccc2)c2cc(N)ccc2c2ccc(N)cc21 [propidium] | propidium binding to purified T331E LmrP and WT LmrP was measured by fluorescence anisotropy | – | – |
| LmrP (Lactococcus lactis) | – | 1.3 ± 0.2 | 7.7 ± 5.1 |
